Literature values in PMC12687463.
Like-named read-outs stand apart in the source and are kept apart here.

Columns and labels:
[1] = target: glucokinase regulatory protein (GKRP) (Homo sapiens) (UniProt Q14397)
[2] = target: glucokinase regulatory protein (GKRP) (Homo sapiens) (UniProt Q14397); remark: listed apart in the source
[3] = target: glucokinase regulatory protein (GKRP) (Homo sapiens) (UniProt Q14397); remark: listed apart in the source

Sequence of glucokinase (P35557 whole entry): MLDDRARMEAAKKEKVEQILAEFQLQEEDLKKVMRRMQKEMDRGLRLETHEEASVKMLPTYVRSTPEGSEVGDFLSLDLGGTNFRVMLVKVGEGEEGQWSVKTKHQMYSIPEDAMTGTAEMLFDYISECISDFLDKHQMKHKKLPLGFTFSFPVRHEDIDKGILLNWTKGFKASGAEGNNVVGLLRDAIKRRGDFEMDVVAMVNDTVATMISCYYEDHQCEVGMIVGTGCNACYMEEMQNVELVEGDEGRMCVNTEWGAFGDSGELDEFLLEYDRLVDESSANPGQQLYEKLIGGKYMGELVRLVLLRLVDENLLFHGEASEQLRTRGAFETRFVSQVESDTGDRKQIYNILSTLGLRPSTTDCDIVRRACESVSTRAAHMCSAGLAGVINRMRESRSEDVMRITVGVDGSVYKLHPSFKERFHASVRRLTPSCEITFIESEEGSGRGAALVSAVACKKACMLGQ
Sequence of UniProt Q14397 (Q14397 whole entry): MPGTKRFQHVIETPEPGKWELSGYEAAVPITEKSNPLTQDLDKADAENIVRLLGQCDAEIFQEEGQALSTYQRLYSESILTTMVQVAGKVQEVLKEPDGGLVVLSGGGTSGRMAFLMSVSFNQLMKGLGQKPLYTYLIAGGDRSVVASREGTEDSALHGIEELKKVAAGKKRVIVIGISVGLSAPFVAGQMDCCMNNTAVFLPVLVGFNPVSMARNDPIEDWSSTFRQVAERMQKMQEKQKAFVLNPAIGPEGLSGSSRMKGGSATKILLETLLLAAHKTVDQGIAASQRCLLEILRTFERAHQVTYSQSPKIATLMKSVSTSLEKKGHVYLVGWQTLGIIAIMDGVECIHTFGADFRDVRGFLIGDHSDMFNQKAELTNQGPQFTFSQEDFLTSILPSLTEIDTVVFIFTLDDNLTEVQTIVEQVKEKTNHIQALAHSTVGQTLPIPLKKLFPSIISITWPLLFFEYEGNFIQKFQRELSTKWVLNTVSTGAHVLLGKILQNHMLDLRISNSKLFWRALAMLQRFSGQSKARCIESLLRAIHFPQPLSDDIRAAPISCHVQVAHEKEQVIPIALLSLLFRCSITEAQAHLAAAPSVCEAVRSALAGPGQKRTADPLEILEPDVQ

Ki [1]: 984 nM | Ki [2]: 7 µM | Ki [3]: 45 nM
Substance: glucokinase (from UniProt P35557)
